In the supplement of paper PMC9942255:

System: Bacillus subtilis DB104 (SP-AmyQ fusion secretion)
Assay: AmyQ secretion efficiency, weighted average sort bin (1 = best secretion, 10 = worst) (bin number (weighted average, 1-10)); higher = lower secretion efficiency
Procedure, shortened: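 Secretion score gives the read-frequency-weighted average bin number, normalised to beads per bin, with low-abundance sequences left out. A B. subtilis DB104 library expressing mature AmyQ fused to designed signal peptides, integrated at amyE, was encapsulated with fluorescein-starch at about 0.3 cells per ~65 nL alginate bead. Beads were grown about 13 h at room temperature, stained with nile red, and the occupied ones were sorted by large-particle flow cytometry into 10 equally populated bins by green/red fluorescence ratio before the amplicons from each bin were Illumina-sequenced.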

Sequence	AmyQ secretion efficiency
MKLAKRVSALTPSTTLAITQKAKEL	5.63
MRNLTKTSLLLAGLCTAAQMVFVTHSTASAEES	3.1
MLTKRLLTIYIMLLGLIAWFPGAAQAEDE	3.66
MLKKKWMVGLLAGCLAAGEDDEEDAFATEN	5.44
MTTWIVLFLVLIAAAISIFVYVSTGSEK	8.09
MKNMSCKLVVSVTLFFSFLTIGPLAHPQNS	5.55
MFGKLLLATSALTFSLSLVLPLDGHAKAQEV	3.02
MRKYTVIASILLSFLSVLRGGHHRSKAFPV	7.77
MMKRSSLIMMTGLLFGLTSPAFAAEK	3.11
MKKRLIGFLVLVPALIMSGITLREANKK	7.02
MLKRTSFVSSLFISSAVLLSILLPSGQAHADDD	4.33
MAIIIAIIAAVIVIAALITFNVRNKSPG	6.36
MSSYIKVLTMCFLGLILFVPTALADNS	1.7
MKSCKQLIVCSLAAILLLIPSVSFGADS	3.57
MKKKQVMLALTAAAGLGLTALHSAPALKAAPL	4.89
MRPVFPLILSAVLFLSCFFGARQTEESASKR	7.33
MKKSQYFIVFICFFVLFSVHPIATAAADS	3.6
MKVPKTMLLSTAAGLLLSLTATSISAHYV	6.77
MKKRKRRNFKRFIAAFLVLALMISLVPADALAKST	1.92
MKKLLAAGIIGLLTVSIASPSFWAEK	7.9
MFKKHTISLLIIFLLASAVLAKPGEAHTV	2.82
MKLAKRVSALTPSTTLAITAKAAPK	7.94
MPYLKRVLLLLVTGLFMSLFAVTATASIQTG	1.67
MKWYRRRQRCSICCAAVLLAGGAAQAEAV	4.99
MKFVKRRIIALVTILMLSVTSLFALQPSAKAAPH	2.38
MKRIRIPMTLALGAALTIAPLSFISAEEN	3.01

Sequence	AmyQ secretion efficiency
MKRLCLWFTVFSPGKALGAVD	7.52
MGTFSTASILLLGILCSAAVFLIGAPSRALGAEV	2.99
MKKKLAAGLTASAIVGTTLVVTPAEAATD	2.88
MKIRKILLSSALSFGMLKDKVPALAAGT	6.36
MKKAFILSAAAAVGLFTFGGVQQASEKEL	6.66
MTMLRKIIGWILLLCIIPLFAFTVINSGKEV	6.45
MKKRITYSLLALLAVVAFAFTDSSKTKAAEA	4
MKNMSCKLVVSVTLFFSFLTIGPLAHSQNS	2.01
MRPVFPLILSAVLFLSCFFGARQTEASMSKR	2.44
MTMLRKIIGWILLLCIIPLFAFTVIASQKEV	6.87
MKRTWNVCLTALLSVLLVAGSVPFHAEAAKK	2.52
MKKKLAAGLTASAIVGTTLVVTPAEADDD	5.01
MKLRKVLTGSVLSLGLLVSASPAFATED	2.67
MNVLLSALLLLLFAFEPSASGKKL	7.25
MKTKTLFIFSAILTLSIFAPNTTFAQTA	2
MFMMSTNNFKRFIAAFLVLALMISLVPADVLAKST	2.59
MKRLTLVCSIVFILFILFYDKDEASAKTA	1.77
MKKRKVMLATALFLGLTPAGANAADL	4.31
MGLGKKLSVAVAASFMSLSISLPGVQYAEG	4.06
MKKRLIAPMLLSAASLAFFAMSGSAQAAAR	4.69
MGRIKTKITILLVLLLLLAGTYMYIN	6.42
MKKKIVAGLAVSAVVRRRRAAAPAEAKTI	7.4
MAIIIAIIAAVIVIAALITFNVGNASPG	5.7
MNLRKILLSSALSLGMLVSAAPVLYTSS	7.31
MAAQTDYKKQVVGILLSLAFVLFVFSCSERHE	4.02
MRMLWRSLALCGLALTLAPCAQAAPK	2.07

Sequence	AmyQ secretion efficiency
MKKQIITATTAVVLGSTLFAKKRASAQSI	7.26
MTKKAWFLPLVCVLLISGWLAPAASASGQTT	1.87
MKWMCSICCAAVLLAGGAAQMEAV	3.22
MKTKTLFIFSAILTLSIFAPNETFARRR	2.28
MKKLLAAGIIGLLTVSIASPSFAASD	2.22
MFMLFMNASLVLFAVVFVFAVKGAPAKAETH	5.11
MKKWRKRLIIAVSLAIAIVLFMYTKGEAKAAGM	3.1
MKFVKRRIIALVTILMLSVTSLFAKKRRRAKAAEH	7.85
MKKKQVMLALTAAAGLGLTALHSAPAAKHAPL	4.9
MNKKYFVLIVCIIFTSALFPTRRKKKRVTAAQG	8.37
MKKVLMAFIICLSLILTLTSVIFISVLAAPPSGAKAESV	2.47
MKKVLMAFIICLSLILSVLAAPPSGAKLESV	8.94
MKSLPYTIALLFCGLIIVSMAAKGKKR	7.49
MKKTIMSFVAVAALSTTAFGAHCSAKEI	2.42
MKKKLAAGLTASAIVGTTLVVTPAEPATI	6.62
MKKIVSILFMFGLVMGFSQFQPSTVFAASD	1.84
MKKRKRRNFKRFIAAFLVLALMISLVPADVLGKST	3.14
MYKKFVPTYTKYFLFFVSFEMMENPHALDY	6.52
MKQIMIFLTSFMMTGQTALAKDV	3.81
MKKGIIRFLLVSFVLFFALRRKKKRVQAAPA	5.81
MRSYIKGTGRCKLGLILFVPTALADNS	6.59
MRKVVGFLSVLGLAAVFPLTAQAEKA	2.03
MAIIIAIIAAVIVIAALITFNVRNESPG	7.39
MRPVFPLILSAVLFLSCFFGARQTEASKSKR	2.19
MKKSAAVLLSLGLVSGFSYGAGHVAEAKTK	2.59
MRKTKKRKLTGLMMFGTITAASASPD	4.65

Sequence	AmyQ secretion efficiency
MFKKHTISLLIIFLLASAVLAKPEEAHTV	4.88
MNLRKILLSSALSLGMLVSAAPLLATSS	4.04
MKMKSGMEQAVSVLLLLSRLPVQASLTSR	6.52
MLCVMMLLFSAIASFPVSDQAKDQ	5.98
MKTLRTLCVLMILSGVIFFGLKIDRKDI	5.46
MRGKSAVLLSLIMLIAGFLIISFSFQM	8.29
MNKPTKLFSTLALAAGMTLIAAAAGGAGTIHAQQP	1.83
MKKWIYVVLVLSIAGIGGPSVHAASS	2.74
MKKIMSAFVGMVLLTIFCFSPQASARRR	6.47
MKRIRIPMTLKKGAALTIAPLSFASAEEN	7.82
MKLSVKIAGVLTVAAAAMTAKMYATPKGN	5.67
MGRIKTKITILLVLLLLLAGGYWYIN	6.88
MKNMSCKLVVSVTLFFSFLTIGPLIHAQNS	1.06
MKRKKLLSTLLIGIMLLTFAPSAFAKQD	1.35
MKTLRSRCYKGILSGVIFFGLKIDAKDI	6.82
MKRIRILALGAALTIAPLSFASAEEN	3.38
MKQTMIFLTSFMLLAMTGQTALAKDV	3.23
MMKKLFHSTLIVLLFFSFFGVIPIHAKKQ	1.92
MKKSGSCQKTLAVILSGVALTQLS	4.76
MKLRKVRKGSVLSLGLLVSASPAFATSP	4.34
MRFTKVVGFLSVLGLAAEDEEEEAQAEKA	7.84
MRGKSAVLLSLIMLIAGFLDEESFSFQM	5.97
MMITWNVCLTALLSVLLVAGSVPFHAEAKKP	3.89
MKIRKIKKSSALSFGMLISAVPALAAGT	4.2
MTSSGFTVFLILLLMLTLVVAPKEKAEAASS	1.98
MKRTWNRCGSSYKTYYLVAGSVPFHAEAKKP	6.5

Sequence	AmyQ secretion efficiency
MKKLRKKKIIGLLTVSIASPSFAAEK	7.35
MIAYFGKCLLLVTIMFLGVLFTAVVVIAGMQQANHG	5.06
MKKWIYVVLVLSIAGIGGFSVHNASS	5.06
MKKLVLCVSILAVILSGVMLTQLS	6.44
MKRLFMKASLVLFAVVFVFAVKGAPTKAETH	2.27
MGLGKKLSVAVAASFMSLSISLVSVQAAEG	1.37
MSKTGRYTKAVIVIAALITFNVRNASPG	4.05
MKKRKRRNFKRFIAAFLVLALMISLVPADTLAKST	1.68
MRKKLKWLSTLLGFIILLFLFKYQFSNNDS	5.35
MSTTIIITATTAVVLGSTLFAGAASAQSI	2.61
MKKKLAAGLTASAIVGTTLVVTPSEAATI	3.77
MMSLLVSLRVWMVFLMNWVTPDRKTAAAAVY	5.61
MKKVLMAFIICLSLILSVLAAPPSGVKAESV	1.85
MTKKAWFLPLVCVLLISGWLAPAASCSAQTT	3.03
MGLGGKLSVAVAASFMSLSISLPGVQAAEG	1.01
MHLIRAAGAVCLAVVLIAGCRFNEDQHQAEDENT	5.99
MKKIGLLFMLCLAALFTIGFPAQQADAAED	2.02
MRFTKVVGFLSVLGLAAVFPLTAQGEKA	2.12
MAIIIAIIAAVIVIAALITFNVVNASPG	8.99
MKSRTIWTIILGALCIAVAYTLTKSQAGASSS	8.18
MKKKLAAGLTASAIVGTTLVVTPPEAATI	5.33
MNLRKILLSSALSLGMLVSAAPVLHTSS	6.17
MKKQIITATTAVVLGSTLFAGAASTQSI	2.06
MYNRKRRVCFLAALIMAFTLPNSVYAQKP	2.73
